In the supplement of paper PMC10065799, “High-throughput profiling of sequence recognition by tyrosine kinases and SH2 domains using bacterial peptide display” (eLife, 2023):

Assays:
Fer (mouse) = experiment: phosphorylation enrichment, bacterial display (enrichment ratio); higher = better substrate or ligand; peptides without Tyr show the background
AncSZ = experiment: as above
Hck = Hck (UniProt P08631); experiment: as above
EPHB1 = EPHB1 (UniProt P54762); experiment: as above
FGFR1 = FGFR1 (UniProt P11362); experiment: as above
c-Src = experiment: as above
Fyn = Fyn (UniProt P06241); experiment: as above
Fes = Fes (UniProt P07332); experiment: as above
FGFR3 = FGFR3 (UniProt P22607); experiment: as above
Jak2 = Jak2 (UniProt O60674); experiment: as above
MERTK = MERTK (UniProt Q12866); experiment: as above
c-Abl (mouse) = experiment: as above
EPHB2 = EPHB2 (UniProt P29323); experiment: as above
c-Src SH2 = experiment: SH2 binding enrichment of the phosphorylated peptide, bacterial display (enrichment ratio); higher = better substrate or ligand; peptides without Tyr show the background
SHP2-C SH2 = experiment: as above
Grb2 SH2 = Grb2 SH2 (UniProt P62993); experiment: as above
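Throughout, for SH2 binding enrichment of the phosphorylated peptide, bacterial display: peptide library displayed on the E. coli surface as eCPX fusions, selected cells deep-sequenced, score is each peptide's frequency after selection divided by its frequency in the input.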
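Throughout, for phosphorylation enrichment, bacterial display: 11-residue human phosphosite peptides and single-mutation variants displayed on the E. coli surface, counted by deep sequencing, each peptide's frequency after selection divided by its frequency in the unselected input library; frequency after pTyr selection over input frequency; kinase dosed for 20-30% of maximal phosphorylation in three min.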

Hck, sequence (P08631 whole entry, looked up): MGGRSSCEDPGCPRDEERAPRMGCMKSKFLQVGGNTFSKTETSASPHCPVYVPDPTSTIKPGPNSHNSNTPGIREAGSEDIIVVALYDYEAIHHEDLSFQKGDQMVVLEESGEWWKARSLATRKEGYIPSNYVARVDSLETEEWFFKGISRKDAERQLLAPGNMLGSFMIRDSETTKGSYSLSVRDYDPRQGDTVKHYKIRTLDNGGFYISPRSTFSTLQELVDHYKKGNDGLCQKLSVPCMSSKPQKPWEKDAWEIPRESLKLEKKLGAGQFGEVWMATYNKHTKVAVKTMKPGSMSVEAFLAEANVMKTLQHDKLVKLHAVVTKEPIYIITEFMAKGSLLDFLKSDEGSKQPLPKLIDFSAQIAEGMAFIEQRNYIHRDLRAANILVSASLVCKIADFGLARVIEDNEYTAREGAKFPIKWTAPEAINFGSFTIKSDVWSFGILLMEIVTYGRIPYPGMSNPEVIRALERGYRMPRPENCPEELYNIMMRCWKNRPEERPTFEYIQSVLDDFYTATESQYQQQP
EPHB1, sequence (P54762 whole entry, looked up): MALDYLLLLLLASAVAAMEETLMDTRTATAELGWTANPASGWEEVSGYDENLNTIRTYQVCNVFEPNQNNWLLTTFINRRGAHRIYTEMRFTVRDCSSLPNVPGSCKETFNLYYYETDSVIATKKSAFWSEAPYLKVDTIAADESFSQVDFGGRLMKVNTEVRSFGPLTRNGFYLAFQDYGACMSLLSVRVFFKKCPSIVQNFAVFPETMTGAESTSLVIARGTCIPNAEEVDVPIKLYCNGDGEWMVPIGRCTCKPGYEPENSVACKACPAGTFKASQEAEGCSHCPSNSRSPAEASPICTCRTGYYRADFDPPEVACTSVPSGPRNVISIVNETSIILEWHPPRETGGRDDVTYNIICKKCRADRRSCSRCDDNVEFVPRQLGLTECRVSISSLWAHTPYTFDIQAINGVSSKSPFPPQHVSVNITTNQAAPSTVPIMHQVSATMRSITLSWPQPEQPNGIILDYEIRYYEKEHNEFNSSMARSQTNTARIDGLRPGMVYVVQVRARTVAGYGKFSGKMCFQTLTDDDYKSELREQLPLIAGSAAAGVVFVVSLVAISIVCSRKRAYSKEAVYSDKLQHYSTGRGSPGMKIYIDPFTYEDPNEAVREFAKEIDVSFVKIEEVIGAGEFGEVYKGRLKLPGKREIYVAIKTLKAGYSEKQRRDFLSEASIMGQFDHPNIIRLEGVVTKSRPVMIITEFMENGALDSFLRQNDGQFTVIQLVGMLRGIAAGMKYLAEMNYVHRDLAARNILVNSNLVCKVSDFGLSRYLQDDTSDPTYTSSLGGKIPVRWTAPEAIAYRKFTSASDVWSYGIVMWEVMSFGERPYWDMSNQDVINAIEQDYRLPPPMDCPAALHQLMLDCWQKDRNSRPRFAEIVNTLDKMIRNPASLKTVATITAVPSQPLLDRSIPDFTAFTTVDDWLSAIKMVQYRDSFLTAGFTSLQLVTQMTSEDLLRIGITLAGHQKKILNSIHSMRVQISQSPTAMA
FGFR1, sequence (P11362 whole entry, looked up): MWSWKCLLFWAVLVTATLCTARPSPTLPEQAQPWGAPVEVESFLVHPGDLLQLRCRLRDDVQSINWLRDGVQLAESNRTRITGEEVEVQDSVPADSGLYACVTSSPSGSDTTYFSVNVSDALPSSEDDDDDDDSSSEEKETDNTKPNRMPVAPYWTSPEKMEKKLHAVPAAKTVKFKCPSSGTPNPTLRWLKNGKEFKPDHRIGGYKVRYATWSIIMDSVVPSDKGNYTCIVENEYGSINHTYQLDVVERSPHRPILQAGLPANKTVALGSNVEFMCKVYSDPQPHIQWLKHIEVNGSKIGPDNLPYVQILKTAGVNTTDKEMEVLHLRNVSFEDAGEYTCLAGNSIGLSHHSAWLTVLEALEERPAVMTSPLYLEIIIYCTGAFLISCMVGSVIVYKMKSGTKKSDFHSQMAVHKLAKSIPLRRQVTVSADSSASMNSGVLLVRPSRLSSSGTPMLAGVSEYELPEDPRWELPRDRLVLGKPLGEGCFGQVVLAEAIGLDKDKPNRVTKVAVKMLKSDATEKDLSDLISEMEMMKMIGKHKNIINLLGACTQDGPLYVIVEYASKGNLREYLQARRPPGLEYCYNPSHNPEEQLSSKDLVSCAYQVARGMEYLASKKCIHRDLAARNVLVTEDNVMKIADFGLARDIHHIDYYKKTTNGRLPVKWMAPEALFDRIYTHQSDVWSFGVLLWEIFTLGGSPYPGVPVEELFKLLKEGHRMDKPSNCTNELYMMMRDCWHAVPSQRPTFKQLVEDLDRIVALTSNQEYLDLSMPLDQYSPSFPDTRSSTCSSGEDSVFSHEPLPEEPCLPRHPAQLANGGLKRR
Jak2, sequence (O60674 whole entry, looked up): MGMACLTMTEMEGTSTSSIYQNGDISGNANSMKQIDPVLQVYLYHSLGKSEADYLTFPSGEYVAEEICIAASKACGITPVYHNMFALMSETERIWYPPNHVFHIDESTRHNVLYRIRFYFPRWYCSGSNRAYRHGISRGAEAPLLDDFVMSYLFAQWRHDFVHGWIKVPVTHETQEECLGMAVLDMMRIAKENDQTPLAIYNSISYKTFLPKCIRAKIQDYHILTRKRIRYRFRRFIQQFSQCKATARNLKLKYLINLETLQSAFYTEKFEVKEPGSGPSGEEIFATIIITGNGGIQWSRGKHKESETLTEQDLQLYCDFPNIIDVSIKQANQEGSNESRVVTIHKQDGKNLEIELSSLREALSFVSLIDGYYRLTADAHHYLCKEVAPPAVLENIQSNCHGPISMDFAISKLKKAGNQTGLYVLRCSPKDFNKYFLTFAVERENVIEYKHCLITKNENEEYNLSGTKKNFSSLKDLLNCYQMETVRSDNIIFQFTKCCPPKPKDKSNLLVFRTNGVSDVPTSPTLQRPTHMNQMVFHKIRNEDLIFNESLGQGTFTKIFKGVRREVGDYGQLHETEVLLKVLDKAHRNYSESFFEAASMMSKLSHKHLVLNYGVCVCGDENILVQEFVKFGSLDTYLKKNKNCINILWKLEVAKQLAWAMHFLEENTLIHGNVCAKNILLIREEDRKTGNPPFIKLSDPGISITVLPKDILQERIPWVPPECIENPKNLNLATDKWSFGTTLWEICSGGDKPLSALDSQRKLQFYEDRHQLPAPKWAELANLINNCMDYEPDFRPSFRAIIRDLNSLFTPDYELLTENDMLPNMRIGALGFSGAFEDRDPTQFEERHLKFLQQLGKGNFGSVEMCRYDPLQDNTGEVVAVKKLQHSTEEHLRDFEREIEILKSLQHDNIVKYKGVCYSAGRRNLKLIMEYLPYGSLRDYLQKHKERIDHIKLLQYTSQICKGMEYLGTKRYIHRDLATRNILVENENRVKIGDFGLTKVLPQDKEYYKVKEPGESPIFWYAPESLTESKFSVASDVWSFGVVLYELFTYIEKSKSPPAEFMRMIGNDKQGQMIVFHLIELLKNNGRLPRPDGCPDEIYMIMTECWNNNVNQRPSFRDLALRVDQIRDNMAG
EPHB2, sequence (P29323 whole entry, looked up): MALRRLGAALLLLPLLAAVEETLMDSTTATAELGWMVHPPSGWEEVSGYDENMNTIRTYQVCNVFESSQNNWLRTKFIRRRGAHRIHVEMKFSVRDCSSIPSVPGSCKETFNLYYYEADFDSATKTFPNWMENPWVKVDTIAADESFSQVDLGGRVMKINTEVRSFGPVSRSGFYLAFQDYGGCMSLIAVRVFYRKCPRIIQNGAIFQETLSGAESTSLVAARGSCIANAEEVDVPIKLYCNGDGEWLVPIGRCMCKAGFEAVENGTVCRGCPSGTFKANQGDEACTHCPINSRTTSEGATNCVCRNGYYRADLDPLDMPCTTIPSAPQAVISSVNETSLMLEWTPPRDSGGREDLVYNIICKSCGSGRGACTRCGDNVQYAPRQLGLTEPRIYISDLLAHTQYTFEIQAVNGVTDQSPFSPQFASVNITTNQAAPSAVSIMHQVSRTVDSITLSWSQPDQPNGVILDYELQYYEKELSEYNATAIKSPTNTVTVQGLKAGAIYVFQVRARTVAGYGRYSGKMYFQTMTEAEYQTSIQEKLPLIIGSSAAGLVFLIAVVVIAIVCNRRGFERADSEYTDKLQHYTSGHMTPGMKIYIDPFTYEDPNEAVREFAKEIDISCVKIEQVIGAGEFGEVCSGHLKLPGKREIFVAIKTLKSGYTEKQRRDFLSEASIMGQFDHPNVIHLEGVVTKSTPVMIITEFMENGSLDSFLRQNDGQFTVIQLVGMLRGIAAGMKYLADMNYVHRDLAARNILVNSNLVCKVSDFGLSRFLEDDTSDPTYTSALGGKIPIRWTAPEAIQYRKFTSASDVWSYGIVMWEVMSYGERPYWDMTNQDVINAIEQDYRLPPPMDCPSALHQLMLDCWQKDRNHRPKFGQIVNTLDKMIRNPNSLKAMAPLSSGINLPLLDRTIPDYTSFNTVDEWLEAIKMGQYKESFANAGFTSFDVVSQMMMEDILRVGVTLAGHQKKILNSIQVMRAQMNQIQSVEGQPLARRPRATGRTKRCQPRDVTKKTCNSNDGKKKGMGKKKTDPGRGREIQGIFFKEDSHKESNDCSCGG
Fyn, sequence (P06241 whole entry, looked up): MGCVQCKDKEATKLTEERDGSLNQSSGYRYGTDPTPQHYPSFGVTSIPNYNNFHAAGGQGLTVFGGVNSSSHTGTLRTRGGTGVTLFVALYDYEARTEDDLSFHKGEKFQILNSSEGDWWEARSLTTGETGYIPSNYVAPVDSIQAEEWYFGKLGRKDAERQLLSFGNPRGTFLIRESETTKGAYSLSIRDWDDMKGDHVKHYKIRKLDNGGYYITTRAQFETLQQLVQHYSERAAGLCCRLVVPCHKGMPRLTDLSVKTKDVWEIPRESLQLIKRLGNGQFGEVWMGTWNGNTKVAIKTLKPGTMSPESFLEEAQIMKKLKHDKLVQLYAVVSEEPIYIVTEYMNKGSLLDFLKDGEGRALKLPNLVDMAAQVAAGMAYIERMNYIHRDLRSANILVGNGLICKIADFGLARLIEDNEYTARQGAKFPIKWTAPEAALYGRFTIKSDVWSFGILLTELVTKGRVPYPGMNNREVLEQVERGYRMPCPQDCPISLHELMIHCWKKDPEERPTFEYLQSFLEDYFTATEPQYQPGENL

Sequence: KGRAGYTTVAV [RET_Y752]
- phosphorylation enrichment (Fer (mouse)): 0.325
- phosphorylation enrichment (AncSZ): 0.46
- phosphorylation enrichment (Hck): 0.337
- phosphorylation enrichment (EPHB1): 0.286
- phosphorylation enrichment (FGFR1): 0.309
- phosphorylation enrichment (c-Src): 0.347
- phosphorylation enrichment (Fyn): 0.319
- phosphorylation enrichment (Fes): 0.519
- phosphorylation enrichment (FGFR3): 0.412
- phosphorylation enrichment (Jak2): 0.437
- phosphorylation enrichment (MERTK): 0.415
- phosphorylation enrichment (c-Abl (mouse)): 0.454
- phosphorylation enrichment (EPHB2): 0.265
- SH2 binding enrichment (c-Src SH2): 1.47
- SH2 binding enrichment (SHP2-C SH2): 1.64
- SH2 binding enrichment (Grb2 SH2): 1.47

Sequence: VKKKLYEEIDQ [CYP17A1_Y329]
- phosphorylation enrichment (Fer (mouse)): 0.372
- phosphorylation enrichment (AncSZ): 0.924
- phosphorylation enrichment (Hck): 0.493
- phosphorylation enrichment (EPHB1): 0.535
- phosphorylation enrichment (FGFR1): 0.444
- phosphorylation enrichment (c-Src): 0.361
- phosphorylation enrichment (Fyn): 0.373
- phosphorylation enrichment (Fes): 0.98
- phosphorylation enrichment (FGFR3): 0.601
- phosphorylation enrichment (Jak2): 0.764
- phosphorylation enrichment (MERTK): 0.347
- phosphorylation enrichment (c-Abl (mouse)): 0.66
- phosphorylation enrichment (EPHB2): 0.541
- SH2 binding enrichment (c-Src SH2): 8.78
- SH2 binding enrichment (SHP2-C SH2): 0.412
- SH2 binding enrichment (Grb2 SH2): 0.758

Sequence: HICTAYKLVLA [DHCR24_Y190_E191K]
- phosphorylation enrichment (Fer (mouse)): 1.52
- phosphorylation enrichment (AncSZ): 1.88
- phosphorylation enrichment (Hck): 1.47
- phosphorylation enrichment (EPHB1): 1.49
- phosphorylation enrichment (FGFR1): 2.66
- phosphorylation enrichment (c-Src): 1.34
- phosphorylation enrichment (Fyn): 1.3
- phosphorylation enrichment (Fes): 2.86
- phosphorylation enrichment (FGFR3): 2.2
- phosphorylation enrichment (Jak2): 1.88
- phosphorylation enrichment (MERTK): 0.832
- phosphorylation enrichment (c-Abl (mouse)): 0.969
- phosphorylation enrichment (EPHB2): 1.53
- SH2 binding enrichment (c-Src SH2): 0.45
- SH2 binding enrichment (SHP2-C SH2): 0.56
- SH2 binding enrichment (Grb2 SH2): 0.867

Sequence: HNGVSYYINLC [IGF2R_Y2024]
- phosphorylation enrichment (Fer (mouse)): 0.577
- phosphorylation enrichment (AncSZ): 1.43
- phosphorylation enrichment (Hck): 0.597
- phosphorylation enrichment (EPHB1): 0.805
- phosphorylation enrichment (FGFR1): 0.605
- phosphorylation enrichment (c-Src): 0.419
- phosphorylation enrichment (Fyn): 0.581
- phosphorylation enrichment (Fes): 1.5
- phosphorylation enrichment (FGFR3): 1.1
- phosphorylation enrichment (Jak2): 1.35
- phosphorylation enrichment (MERTK): 0.513
- phosphorylation enrichment (c-Abl (mouse)): 1.15
- phosphorylation enrichment (EPHB2): 0.541
- SH2 binding enrichment (c-Src SH2): 0.431
- SH2 binding enrichment (SHP2-C SH2): 1
- SH2 binding enrichment (Grb2 SH2): 1.14

Sequence: CTTIHYNFVCN [TP53_Y234_M237V_YF]
- phosphorylation enrichment (Fer (mouse)): 0.694
- phosphorylation enrichment (AncSZ): 0.998
- phosphorylation enrichment (Hck): 0.54
- phosphorylation enrichment (EPHB1): 0.678
- phosphorylation enrichment (FGFR1): 0.694
- phosphorylation enrichment (c-Src): 0.532
- phosphorylation enrichment (Fyn): 0.539
- phosphorylation enrichment (Fes): 1.11
- phosphorylation enrichment (FGFR3): 0.769
- phosphorylation enrichment (Jak2): 1.01
- phosphorylation enrichment (MERTK): 0.508
- phosphorylation enrichment (c-Abl (mouse)): 0.754
- phosphorylation enrichment (EPHB2): 0.654
- SH2 binding enrichment (c-Src SH2): 1.93
- SH2 binding enrichment (SHP2-C SH2): 1.59
- SH2 binding enrichment (Grb2 SH2): 1.94

Sequence: LARNMYDKEYY [MET_Y1230_D1228N]
- phosphorylation enrichment (Fer (mouse)): 0.468
- phosphorylation enrichment (AncSZ): 1.13
- phosphorylation enrichment (Hck): 0.605
- phosphorylation enrichment (EPHB1): 0.482
- phosphorylation enrichment (FGFR1): 0.631
- phosphorylation enrichment (c-Src): 0.611
- phosphorylation enrichment (Fyn): 0.441
- phosphorylation enrichment (Fes): 0.872
- phosphorylation enrichment (FGFR3): 0.569
- phosphorylation enrichment (Jak2): 0.84
- phosphorylation enrichment (MERTK): 0.358
- phosphorylation enrichment (c-Abl (mouse)): 0.565
- phosphorylation enrichment (EPHB2): 0.546
- SH2 binding enrichment (c-Src SH2): 0.71
- SH2 binding enrichment (SHP2-C SH2): 0.673
- SH2 binding enrichment (Grb2 SH2): 0.843

Sequence: RVQQIYSDSDL [MIB1_Y376]
- phosphorylation enrichment (Fer (mouse)): 3.92
- phosphorylation enrichment (AncSZ): 1.32
- phosphorylation enrichment (Hck): 3.68
- phosphorylation enrichment (EPHB1): 1.45
- phosphorylation enrichment (FGFR1): 0.574
- phosphorylation enrichment (c-Src): 5.32
- phosphorylation enrichment (Fyn): 4.75
- phosphorylation enrichment (Fes): 1.32
- phosphorylation enrichment (FGFR3): 0.852
- phosphorylation enrichment (Jak2): 0.902
- phosphorylation enrichment (MERTK): 4.58
- phosphorylation enrichment (c-Abl (mouse)): 1.31
- phosphorylation enrichment (EPHB2): 0.837
- SH2 binding enrichment (c-Src SH2): 0.541
- SH2 binding enrichment (SHP2-C SH2): 0.962
- SH2 binding enrichment (Grb2 SH2): 0.842

Sequence: DAGTDYVGISR [FREM2_Y2061]
- phosphorylation enrichment (Fer (mouse)): 0.459
- phosphorylation enrichment (AncSZ): 0.606
- phosphorylation enrichment (Hck): 0.545
- phosphorylation enrichment (EPHB1): 0.445
- phosphorylation enrichment (FGFR1): 0.541
- phosphorylation enrichment (c-Src): 0.459
- phosphorylation enrichment (Fyn): 0.482
- phosphorylation enrichment (Fes): 0.64
- phosphorylation enrichment (FGFR3): 0.621
- phosphorylation enrichment (Jak2): 0.496
- phosphorylation enrichment (MERTK): 0.414
- phosphorylation enrichment (c-Abl (mouse)): 0.54
- phosphorylation enrichment (EPHB2): 0.492
- SH2 binding enrichment (c-Src SH2): 0.481
- SH2 binding enrichment (SHP2-C SH2): 0.758
- SH2 binding enrichment (Grb2 SH2): 0.938

Sequence: HRGFLYLAIEF [TEK_Y899_Y897F_YF]
- phosphorylation enrichment (Fer (mouse)): 0.968
- phosphorylation enrichment (AncSZ): 1.49
- phosphorylation enrichment (Hck): 0.627
- phosphorylation enrichment (EPHB1): 0.765
- phosphorylation enrichment (FGFR1): 0.515
- phosphorylation enrichment (c-Src): 0.687
- phosphorylation enrichment (Fyn): 0.352
- phosphorylation enrichment (Fes): 1.67
- phosphorylation enrichment (FGFR3): 1.02
- phosphorylation enrichment (Jak2): 1.7
- phosphorylation enrichment (MERTK): 0.711
- phosphorylation enrichment (c-Abl (mouse)): 1.52
- phosphorylation enrichment (EPHB2): 0.539
- SH2 binding enrichment (c-Src SH2): 0.556
- SH2 binding enrichment (SHP2-C SH2): 0.819
- SH2 binding enrichment (Grb2 SH2): 1.13

Sequence: MILSAYALGGL [CPS1_Y590_R587L]
- phosphorylation enrichment (Fer (mouse)): 0.552
- phosphorylation enrichment (AncSZ): 0.894
- phosphorylation enrichment (Hck): 0.497
- phosphorylation enrichment (EPHB1): 0.655
- phosphorylation enrichment (FGFR1): 0.431
- phosphorylation enrichment (c-Src): 0.584
- phosphorylation enrichment (Fyn): 0.458
- phosphorylation enrichment (Fes): 1
- phosphorylation enrichment (FGFR3): 0.675
- phosphorylation enrichment (Jak2): 0.928
- phosphorylation enrichment (MERTK): 0.436
- phosphorylation enrichment (c-Abl (mouse)): 0.736
- phosphorylation enrichment (EPHB2): 0.562
- SH2 binding enrichment (c-Src SH2): 0.708
- SH2 binding enrichment (SHP2-C SH2): 0.794
- SH2 binding enrichment (Grb2 SH2): 0.835

Sequence: ADGLEYSRTGL [MMUT_Y287]
- phosphorylation enrichment (Fer (mouse)): 0.514
- phosphorylation enrichment (AncSZ): 0.99
- phosphorylation enrichment (Hck): 0.776
- phosphorylation enrichment (EPHB1): 0.555
- phosphorylation enrichment (FGFR1): 0.602
- phosphorylation enrichment (c-Src): 0.641
- phosphorylation enrichment (Fyn): 0.544
- phosphorylation enrichment (Fes): 0.978
- phosphorylation enrichment (FGFR3): 0.559
- phosphorylation enrichment (Jak2): 0.855
- phosphorylation enrichment (MERTK): 0.592
- phosphorylation enrichment (c-Abl (mouse)): 0.878
- phosphorylation enrichment (EPHB2): 1.6
- SH2 binding enrichment (c-Src SH2): 0.373
- SH2 binding enrichment (SHP2-C SH2): 0.606
- SH2 binding enrichment (Grb2 SH2): 0.758

Sequence: ECKLLYSRKEG [PTPN11_Y263]
- phosphorylation enrichment (Fer (mouse)): 0.465
- phosphorylation enrichment (AncSZ): 0.855
- phosphorylation enrichment (Hck): 0.564
- phosphorylation enrichment (EPHB1): 0.436
- phosphorylation enrichment (FGFR1): 0.487
- phosphorylation enrichment (c-Src): 0.425
- phosphorylation enrichment (Fyn): 0.446
- phosphorylation enrichment (Fes): 0.754
- phosphorylation enrichment (FGFR3): 0.554
- phosphorylation enrichment (Jak2): 0.647
- phosphorylation enrichment (MERTK): 0.483
- phosphorylation enrichment (c-Abl (mouse)): 0.77
- phosphorylation enrichment (EPHB2): 0.513
- SH2 binding enrichment (c-Src SH2): 0.616
- SH2 binding enrichment (SHP2-C SH2): 1.09
- SH2 binding enrichment (Grb2 SH2): 1.02

Sequence: EAVSIYQFFGQ [CBLC_Y402_H405Y_YF]
- phosphorylation enrichment (Fer (mouse)): 8.72
- phosphorylation enrichment (AncSZ): 1.74
- phosphorylation enrichment (Hck): 7.12
- phosphorylation enrichment (EPHB1): 11.2
- phosphorylation enrichment (FGFR1): 3.15
- phosphorylation enrichment (c-Src): 6.58
- phosphorylation enrichment (Fyn): 7.8
- phosphorylation enrichment (Fes): 1.36
- phosphorylation enrichment (FGFR3): 2.67
- phosphorylation enrichment (Jak2): 1.34
- phosphorylation enrichment (MERTK): 9.29
- phosphorylation enrichment (c-Abl (mouse)): 6.44
- phosphorylation enrichment (EPHB2): 5.73
- SH2 binding enrichment (c-Src SH2): 0.654
- SH2 binding enrichment (SHP2-C SH2): 0.881
- SH2 binding enrichment (Grb2 SH2): 0.921

Sequence: GLSAPYVKIHL [SYT2_Y309_D307A]
- phosphorylation enrichment (Fer (mouse)): 0.527
- phosphorylation enrichment (AncSZ): 0.747
- phosphorylation enrichment (Hck): 0.443
- phosphorylation enrichment (EPHB1): 0.426
- phosphorylation enrichment (FGFR1): 0.436
- phosphorylation enrichment (c-Src): 0.383
- phosphorylation enrichment (Fyn): 0.337
- phosphorylation enrichment (Fes): 0.785
- phosphorylation enrichment (FGFR3): 0.714
- phosphorylation enrichment (Jak2): 0.994
- phosphorylation enrichment (MERTK): 0.43
- phosphorylation enrichment (c-Abl (mouse)): 0.509
- phosphorylation enrichment (EPHB2): 0.423
- SH2 binding enrichment (c-Src SH2): 1.07
- SH2 binding enrichment (SHP2-C SH2): 3.06
- SH2 binding enrichment (Grb2 SH2): 1.03
